Source: paper PMC10799931, “Cryo- EM structure of the mycobacterial 70S ribosome in complex with ribosome hibernation promotion factor RafH” (Nature Communications, 2024)

T1: bacterial ribosomal protein bS1, M. smegmatis (M. smegmatis, UniProt A0QYY6 1-479)
T1 construct: ribosomal protein bS1 of M. smegmatis; only the two N-terminal domains OB1 and OB2 are visible in the map, the rest is disordered; Stood in the assay as a part of the 70S ribosome; the model was begun from AlphaFold2 and docked in the map; also called bS1 r-protein; source: endogenous, in ribosomes purified from M. smegmatis MC2 155
T1 sequence (looked up): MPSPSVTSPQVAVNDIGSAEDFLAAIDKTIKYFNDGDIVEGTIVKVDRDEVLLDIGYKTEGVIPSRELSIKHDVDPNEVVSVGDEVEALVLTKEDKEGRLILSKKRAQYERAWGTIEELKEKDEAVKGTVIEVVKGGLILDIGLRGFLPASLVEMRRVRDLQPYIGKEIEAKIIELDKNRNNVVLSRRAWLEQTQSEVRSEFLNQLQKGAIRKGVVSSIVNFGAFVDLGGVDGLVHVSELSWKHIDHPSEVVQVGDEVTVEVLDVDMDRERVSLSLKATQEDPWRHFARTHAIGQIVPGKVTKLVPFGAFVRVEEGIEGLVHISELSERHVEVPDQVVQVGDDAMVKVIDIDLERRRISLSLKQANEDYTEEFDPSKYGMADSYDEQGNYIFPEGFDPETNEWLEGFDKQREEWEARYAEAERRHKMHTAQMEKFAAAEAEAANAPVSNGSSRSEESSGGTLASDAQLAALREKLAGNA

B1: ribosomal protein uS2, M. smegmatis (natural protein, UniProt A0QVB8 1-277, looked up)
chain: MAVVTMKQLLDSGAHFGHQTRRWNPKMKRFIFTDRNGIYIIDLQQTLTYIDKAYEFVKETVAHGGTVLFVGTKKQAQESIAEEATRVGMPYVNQRWLGGMLTNFSTVHKRLQRLKELEAMEQTGGFEGRTKKEILMLTREKNKLERSLGGIRDMQKVPSAVWVVDTNKEHIAVGEARKLGIPVIAILDTNCDPDVVDYPIPGNDDAIRSAALLTKVIASAVAEGLQARAGQGSGEKPAEGAEPLAEWEQELLAGATAGAADASAEGAAAPESSTDAS
notes: ribosomal protein uS2 of M. smegmatis; Stood in the assay as a part of the 70S ribosome; also called uS2 r-protein; source: endogenous, in ribosomes purified from M. smegmatis MC2 155
B2: ribosomal protein uS9, M. smegmatis (natural protein, UniProt A0QSP9 1-150, looked up)
chain: MTDVTETEVVTESAEPREPVIIDRPIQTVGRRKEAVVRVRLVPGTGQFNLDGRTLENYFPNKVHQQLIKAPLVTVDRVDQFDIYAHLDGGGPSGQAGALRLAIARALILVQPEDRPALKKAGFLTRDPRAIERKKYGLKKARKAPQYSKR
notes: ribosomal protein uS9 of M. smegmatis; C-terminal residue R150; Stood in the assay as a part of the 70S ribosome; also called r-protein uS9; source: endogenous, in ribosomes purified from M. smegmatis MC2 155
B3: RafH (ribosome associated factor under hypoxia), M. smegmatis (natural protein, UniProt A0QZ86 1-258, looked up)
chain: MDVDVSTDGELPGAAEYAREKIGRLSRRAHRPVLHARVRLTRHGDPAVERPVIAQANLDVNGRQVRAQVEGVNAREAVDRLEARLRSRLERIAEHWEARRGGVPAEAGREWRHESEPARRPGYFPRPPEERRIIRRKSFSMVPCTVDEAALEMEMLDYDFHLFTEKGTGFAAVLYKGGPTGYRLVLVIPVPADELSPFEKPITISTHPAPCLTQRDAVERLGLLGLPFLFYIDAAEGRASVIYRRYDGHYGLITPADG
notes: RafH of M. smegmatis, gene MSMEG_3935, 258 amino acid residues (~30 kDa): NTD 1-100, linker 101-130, CTD 131-258; gene synthesised (GenScript) and cloned in pET-28a(+); the methods say only that the gene MSMEG_3935 was cloned; also called MSMEG_3935; source: E. coli C41(DE3), purified (Ni-NTA, size-exclusion chromatography)
B4: ribosomal protein uS11, M. smegmatis (natural protein)
chain: not shown
notes: ribosomal protein uS11 of M. smegmatis; Stood in the assay as a part of the 70S ribosome; also called uS11 r-protein; source: endogenous, in ribosomes purified from M. smegmatis MC2 155

Key:
[1] = molecular target: T1, bacterial ribosomal protein bS1, M. …; experiment: cryo-EM structure; single particle cryo-EM of the in-vitro reconstituted 70S ribosome RafH complex (Titan Krios 300 kV, Falcon 3, Relion 3.1.4); overall 2.8 Å; maps with bS1 or E-site tRNA low pass filtered to 3.5 Å; conditions: both partners purified
[2] = molecular target: B3; experiment: as above; conditions: both partners purified

Binder: B1
- binding result [1]: binds

Binder: B2
- binding result [2]: binds

Binder: B3
- binding result [1]: binds

Binder: B4
- binding result [2]: binds
